Assay results reported in the supplement of paper PMC10724198.

Legend:
Saccharomyces cerevisiae [1] = assay: protein stability index of tFT-peptide fusion in deletion strain of DAS1 (PSI (0-1 scale)); higher = more stable (slower turnover)
Method: (§1)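 MPS profiling in S. cerevisiae of two library types built from selected 12-aa C-degron peptides (IN1, IN2, LN1, LN3, VN2, R1-R5, W1-W3, Atg1 and Rpa12 C-termini): saturation mutagenesis libraries and C-terminal +1 capping libraries (13 aa). Each peptide is fused to the C-terminus of a sfGFP-mCherry timer, after a GGGS linker. Cells are FACS-sorted into 8 mCherry/sfGFP bins and sequenced. PSI runs from 0 (unstable) to 1 (stable), measured once in wild type and in the das1Δ or doa10Δ background.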

Saccharomyces cerevisiae [2] = assay: protein stability index of tFT-peptide fusion in wild type (PSI (0-1 scale)); higher = more stable (slower turnover); conditions: genetic background: wild type
Method: as §1
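Wherever protein stability index of tFT-peptide fusion in deletion strain of DAS1 is given: PSI is a weighted mean of each variant's read distribution over the sorted stability bins, computed only for variants having over 10 reads in total.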
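Wherever protein stability index of tFT-peptide fusion in wild type is given: PSI derived as read-weighted mean over the 8 sorting bins, only variants exceeding 10 total reads kept, mCherry placed adjacent to the peptide and sfGFP distal.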

Sequence | protein stability index (Saccharomyces cerevisiae [1]) | protein stability index (Saccharomyces cerevisiae [2])
LKILRQKMNHQF | 0.678 | 0.255
LKILRQKMNHQH | 0.68 | 0.231
LKILRQKMNHQNC | 0.661 | 0.606
LKILRQKMNHQNQ | 0.685 | 0.623
LKILRQKMNHWN | 0.666 | 0.216
LKILRQKMSHQN | 0.682 | 0.37
LKILRQKMWHQN | 0.657 | 0.238
LKILRQTMNHQN | 0.677 | 0.224
LKILRVKMNHQN | 0.646 | 0.187
LKILTQKMNHQN | 0.688 | 0.276
LKILWQKMNHQN | 0.67 | 0.206
LKIWRQKMNHQN | 0.687 | 0.176
LKIYRQKMNHQN | 0.689 | 0.182
LRGAVGGWRLVG | 0.681 | 0.149
LSILRQKMNHQN | 0.675 | 0.127
LSLAASFWRVVG | 0.664 | 0.129
LVKYLSCVACIN | 0.365 | 0.09
LVMYLSCVACIN | 0.135 | 0.0125
LVSYLSCVACIN | 0.252 | 0.0799
LVVVLSCVACIN | 0.0377 | 0.0126
LVVWLSCVACIN | 0.0381 | 0.0122
LVVYCSCVACIN | 0.0283 | 0.0182
LVVYLQCVACIN | 0.0353 | 0.0274

Sequence | protein stability index (Saccharomyces cerevisiae [1]) | protein stability index (Saccharomyces cerevisiae [2])
LVVYLSAVACIN | 0.0365 | 0.0153
LVVYLSCSACIN | 0.0361 | 0.0177
LVVYLSCVACDN | 0.272 | 0.249
LVVYLSCVACIH | 0.0535 | 0.0123
LVVYLSCVACIT | 0.0345 | 0.0143
LVVYLSCVACKN | 0.0769 | 0.034
LVVYLSCVADIN | 0.168 | 0.108
LVVYLSCVAGIN | 0.154 | 0.13
LVVYLSCVANIN | 0.0788 | 0.0173
LVVYLSCVAQIN | 0.0252 | 0.014
LVVYLSCVKCIN | 0.319 | 0.146
LVVYLSEVACIN | 0.286 | 0.264
LVVYLTCVACIN | 0.0371 | 0.0129
LVVYLYCVACIN | 0.0269 | 0.0123
MDKRNHLIKLLN | 0.702 | 0.111
MKILRQKMNHQN | 0.66 | 0.163
MRGAVGGWRLVG | 0.653 | 0.146
MRWRVGLWRGAS | 0.727 | 0.143
PCKRNHLIKLLN | 0.614 | 0.112
PCLAASFWRVVG | 0.68 | 0.128
PDKCNHLIKLLN | 0.586 | 0.209
PDKQNHLIKLLN | 0.593 | 0.189
PDKRCHLIKLLN | 0.596 | 0.0642

Sequence | protein stability index (Saccharomyces cerevisiae [1]) | protein stability index (Saccharomyces cerevisiae [2])
PDKRNHAIKLLN | 0.603 | 0.186
PDKRNHDIKLLN | 0.606 | 0.407
PDKRNHLIKFLN | 0.583 | 0.112
PDKRNHLIKLKN | 0.599 | 0.273
PDKRNHLIKLLM | 0.586 | 0.112
PDKRNHLIKLLV | 0.618 | 0.118
PDKRNHLIKLLY | 0.587 | 0.328
PDKRNHLIKLYN | 0.599 | 0.343
PDKSNHLIKLLN | 0.652 | 0.157
PIKRNHLIKLLN | 0.622 | 0.157
PNLAASFWRVVG | 0.694 | 0.144
PQLAASFWRVVG | 0.7 | 0.152
PRGAVGGWRLVG | 0.671 | 0.169
PRLAASFWRVVG | 0.691 | 0.197
PSIAASFWRVVG | 0.695 | 0.143
PSLAACFWRVVG | 0.675 | 0.141
PSLAAHFWRVVG | 0.694 | 0.155
PSLAAIFWRVVG | 0.645 | 0.138
PSLAASFPRVVG | 0.66 | 0.659
PSLAASFSRVVG | 0.631 | 0.665
PSLAASFWPVVG | 0.706 | 0.656
PSLAASFWRVAG | 0.671 | 0.256
PSLAASFWRVVC | 0.679 | 0.119

Sequence | protein stability index (Saccharomyces cerevisiae [1]) | protein stability index (Saccharomyces cerevisiae [2])
PSLAASFWRVVD | 0.698 | 0.48
PSLAASFWRVVGC | 0.685 | 0.664
PSLAASFWRVVGY | 0.684 | 0.658
PSLAASFWRVVS | 0.641 | 0.15
PSLAASFWRVVV | 0.687 | 0.144
PSLAASFWVVVG | 0.554 | 0.249
PSLAASWWRVVG | 0.693 | 0.179
PSLAAVFWRVVG | 0.665 | 0.146
PSLAKSFWRVVG | 0.702 | 0.375
PSLAVSFWRVVG | 0.673 | 0.137
PSLGASFWRVVG | 0.696 | 0.207
PSLSASFWRVVG | 0.692 | 0.176
PSVAASFWRVVG | 0.679 | 0.142
PTSCGYKFRTNN | 0.677 | 0.219
PVKRNHLIKLLN | 0.608 | 0.129
PWKRNHLIKLLN | 0.606 | 0.0786
QKILRQKMNHQN | 0.678 | 0.152
QTSCGYKFRTNN | 0.673 | 0.206
RFIQPLPVQFLN | 0.54 | 0.0529
RLCQPLPVQFLN | 0.612 | 0.0327
